For this test, the target named is mouse Cav1.3 α1 subunit expressed in HEK cells (mouse) (UniProt Q99246).
mouse Cav1.3 α1 subunit expressed in HEK cells (mouse), sequence (Q99246 whole entry): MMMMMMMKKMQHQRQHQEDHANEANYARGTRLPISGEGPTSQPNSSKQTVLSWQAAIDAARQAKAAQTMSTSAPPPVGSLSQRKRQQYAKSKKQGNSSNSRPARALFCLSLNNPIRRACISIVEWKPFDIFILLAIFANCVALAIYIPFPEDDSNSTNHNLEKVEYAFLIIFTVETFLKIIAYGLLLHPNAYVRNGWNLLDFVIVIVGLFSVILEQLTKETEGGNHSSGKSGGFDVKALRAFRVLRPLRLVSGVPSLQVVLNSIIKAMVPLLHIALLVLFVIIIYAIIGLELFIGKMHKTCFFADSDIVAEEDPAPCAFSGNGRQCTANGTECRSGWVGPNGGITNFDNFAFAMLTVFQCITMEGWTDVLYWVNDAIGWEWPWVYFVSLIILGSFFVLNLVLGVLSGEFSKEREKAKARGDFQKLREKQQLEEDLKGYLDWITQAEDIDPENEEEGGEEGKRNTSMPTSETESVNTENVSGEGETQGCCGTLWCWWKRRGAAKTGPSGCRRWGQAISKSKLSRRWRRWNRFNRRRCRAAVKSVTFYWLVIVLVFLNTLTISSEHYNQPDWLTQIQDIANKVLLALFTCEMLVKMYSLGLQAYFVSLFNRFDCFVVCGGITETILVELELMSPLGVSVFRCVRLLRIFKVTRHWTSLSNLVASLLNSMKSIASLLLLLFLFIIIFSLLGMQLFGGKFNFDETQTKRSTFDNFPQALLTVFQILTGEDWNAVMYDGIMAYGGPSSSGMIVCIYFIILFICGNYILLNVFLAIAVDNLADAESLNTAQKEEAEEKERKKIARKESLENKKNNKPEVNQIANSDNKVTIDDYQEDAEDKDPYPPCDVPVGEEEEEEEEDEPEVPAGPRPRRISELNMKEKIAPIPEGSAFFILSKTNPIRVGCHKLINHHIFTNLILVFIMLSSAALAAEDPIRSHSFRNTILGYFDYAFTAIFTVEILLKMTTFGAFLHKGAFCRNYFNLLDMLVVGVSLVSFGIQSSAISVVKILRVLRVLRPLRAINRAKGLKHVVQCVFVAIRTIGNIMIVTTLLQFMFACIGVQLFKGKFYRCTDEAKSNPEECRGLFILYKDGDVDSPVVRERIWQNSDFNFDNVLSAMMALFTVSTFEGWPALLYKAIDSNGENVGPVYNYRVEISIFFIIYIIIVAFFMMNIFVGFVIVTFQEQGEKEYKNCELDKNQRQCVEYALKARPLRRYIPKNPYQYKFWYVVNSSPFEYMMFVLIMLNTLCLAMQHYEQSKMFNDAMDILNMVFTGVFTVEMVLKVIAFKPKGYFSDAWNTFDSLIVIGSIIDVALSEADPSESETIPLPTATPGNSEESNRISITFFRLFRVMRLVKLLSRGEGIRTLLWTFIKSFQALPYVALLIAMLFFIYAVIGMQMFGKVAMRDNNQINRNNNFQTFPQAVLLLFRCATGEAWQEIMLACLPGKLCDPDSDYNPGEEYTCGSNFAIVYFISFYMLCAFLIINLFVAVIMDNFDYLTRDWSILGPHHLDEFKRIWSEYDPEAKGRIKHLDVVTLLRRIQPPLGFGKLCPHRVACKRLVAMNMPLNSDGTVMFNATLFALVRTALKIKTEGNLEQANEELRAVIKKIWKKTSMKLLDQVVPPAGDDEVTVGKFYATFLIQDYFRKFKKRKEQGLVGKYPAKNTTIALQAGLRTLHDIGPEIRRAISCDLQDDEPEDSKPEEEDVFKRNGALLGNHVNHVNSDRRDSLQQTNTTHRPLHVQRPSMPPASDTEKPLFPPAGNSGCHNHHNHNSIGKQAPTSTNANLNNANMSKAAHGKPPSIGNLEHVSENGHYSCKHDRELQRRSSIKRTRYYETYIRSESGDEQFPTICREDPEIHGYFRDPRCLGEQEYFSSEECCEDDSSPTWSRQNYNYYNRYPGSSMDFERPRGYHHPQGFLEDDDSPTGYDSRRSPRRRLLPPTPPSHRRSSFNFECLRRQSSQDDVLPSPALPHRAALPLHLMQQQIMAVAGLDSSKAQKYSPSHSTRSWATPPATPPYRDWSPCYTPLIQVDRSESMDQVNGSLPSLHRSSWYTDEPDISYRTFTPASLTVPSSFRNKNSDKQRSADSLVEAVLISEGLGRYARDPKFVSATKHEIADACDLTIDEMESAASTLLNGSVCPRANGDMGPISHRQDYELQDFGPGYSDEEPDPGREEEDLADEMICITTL

B1: human RS1 (wild type) expressed in HEK cells (natural protein)
chain: STEDEGEDPWYQKACKCDCQGGPNALWSAGATSLDCIPECPYHKPLGFESGEVTPDQITCSNPEQYVGWYSSWTANKARLNSQGFGCAWLSKFQDSSQWLQIDLKEIKVISGILTQGRCDIDEWMTKYSVQYRTDERLNWIYYKDQTGNNRVFYGNSDRTSTVQNLLRPPIISRFIRLIPLGWHVRIAIRMELLECVSKCA
Consider B1, for which the shift of the current-membrane voltage relationship (voltage-dependent activation) of Cav1.3-LTCCs on co-transfection with RS1, HEK cells was -10 mV.

The record behind these values is publication PMC5550728.
